Laboratory results from PMC3527552.

Columns and labels:
Conditions in all cases: glycan lost; control: wild type
[1] = total cell lysate anti-HA Western blot
[2] = confocal immunofluorescence, colocalisation with calnexin
[3] = cell surface biotinylation, anti-HA Western blot
[4] = 0.1 μM E-3-S uptake, 2 min, HEK293

Protein	expression_or_secretion [1]	localisation_or_trafficking [2]	expression_or_secretion, percent_of_wt [3]	other: transport activity [4]
OATP1B1: N134/503/516Q (protein) parent chain: MDQNQHLNKTAEAQPSENKKTRYCNGLKMFLAALSLSFIAKTLGAIIMKSSIIHIERRFEISSSLVGFIDGSFEIGNLLVIVFVSYFGSKLHRPKLIGIGCFIMGIGGVLTALPHFFMGYYRYSKETNINSSENSTSTLSTCLINQILSLNRASPEIVGKGCLKESGSYMWIYVFMGNMLRGIGETPIVPLGLSYIDDFAKEGHSSLYLGILNAIAMIGPIIGFTLGSLFSKMYVDIGYVDLSTIRITPTDSRWVGAWWLNFLVSGLFSIISSIPFFFLPQTPNKPQKERKASLSLHVLETNDEKDQTANLTNQGKNITKNVTGFFQSFKSILTNPLYVMFVLLTLLQVSSYIGAFTYVFKYVEQQYGQPSSKANILLGVITIPIFASGMFLGGYIIKKFKLNTVGIAKFSCFTAVMSLSFYLLYFFILCENKSVAGLTMTYDGNNPVTSHRDVPLSYCNSDCNCDESQWEPVCGNNGITYISPCLAGCKSSSGNKKPIVFYNCSCLEVTGLQNRNYSAHLGECPRDDACTRKFYFFVAIQVLNLFFSALGGTSHVMLIVKIVQPELKSLALGFHSMVIRALGGILAPIYFGALIDTTCIKWSTNNCGTRGSCRTYNSTSFSRVYLGLSSMLRVSSLVLYIILIYAMKKKYQEKDINASENGSVMDEANLESLNKNKHFVPSAGADSETHC	decreases	changes	decreases	–
OATP1B1: N134/503Q (protein) parent chain: MDQNQHLNKTAEAQPSENKKTRYCNGLKMFLAALSLSFIAKTLGAIIMKSSIIHIERRFEISSSLVGFIDGSFEIGNLLVIVFVSYFGSKLHRPKLIGIGCFIMGIGGVLTALPHFFMGYYRYSKETNINSSENSTSTLSTCLINQILSLNRASPEIVGKGCLKESGSYMWIYVFMGNMLRGIGETPIVPLGLSYIDDFAKEGHSSLYLGILNAIAMIGPIIGFTLGSLFSKMYVDIGYVDLSTIRITPTDSRWVGAWWLNFLVSGLFSIISSIPFFFLPQTPNKPQKERKASLSLHVLETNDEKDQTANLTNQGKNITKNVTGFFQSFKSILTNPLYVMFVLLTLLQVSSYIGAFTYVFKYVEQQYGQPSSKANILLGVITIPIFASGMFLGGYIIKKFKLNTVGIAKFSCFTAVMSLSFYLLYFFILCENKSVAGLTMTYDGNNPVTSHRDVPLSYCNSDCNCDESQWEPVCGNNGITYISPCLAGCKSSSGNKKPIVFYNCSCLEVTGLQNRNYSAHLGECPRDDACTRKFYFFVAIQVLNLFFSALGGTSHVMLIVKIVQPELKSLALGFHSMVIRALGGILAPIYFGALIDTTCIKWSTNNCGTRGSCRTYNSTSFSRVYLGLSSMLRVSSLVLYIILIYAMKKKYQEKDINASENGSVMDEANLESLNKNKHFVPSAGADSETHC	–	–	no change	no change
OATP1B1: N134/617Q (protein) parent chain: MDQNQHLNKTAEAQPSENKKTRYCNGLKMFLAALSLSFIAKTLGAIIMKSSIIHIERRFEISSSLVGFIDGSFEIGNLLVIVFVSYFGSKLHRPKLIGIGCFIMGIGGVLTALPHFFMGYYRYSKETNINSSENSTSTLSTCLINQILSLNRASPEIVGKGCLKESGSYMWIYVFMGNMLRGIGETPIVPLGLSYIDDFAKEGHSSLYLGILNAIAMIGPIIGFTLGSLFSKMYVDIGYVDLSTIRITPTDSRWVGAWWLNFLVSGLFSIISSIPFFFLPQTPNKPQKERKASLSLHVLETNDEKDQTANLTNQGKNITKNVTGFFQSFKSILTNPLYVMFVLLTLLQVSSYIGAFTYVFKYVEQQYGQPSSKANILLGVITIPIFASGMFLGGYIIKKFKLNTVGIAKFSCFTAVMSLSFYLLYFFILCENKSVAGLTMTYDGNNPVTSHRDVPLSYCNSDCNCDESQWEPVCGNNGITYISPCLAGCKSSSGNKKPIVFYNCSCLEVTGLQNRNYSAHLGECPRDDACTRKFYFFVAIQVLNLFFSALGGTSHVMLIVKIVQPELKSLALGFHSMVIRALGGILAPIYFGALIDTTCIKWSTNNCGTRGSCRTYNSTSFSRVYLGLSSMLRVSSLVLYIILIYAMKKKYQEKDINASENGSVMDEANLESLNKNKHFVPSAGADSETHC	–	–	no change	no change
OATP1B1: N516Q (protein) parent chain: MDQNQHLNKTAEAQPSENKKTRYCNGLKMFLAALSLSFIAKTLGAIIMKSSIIHIERRFEISSSLVGFIDGSFEIGNLLVIVFVSYFGSKLHRPKLIGIGCFIMGIGGVLTALPHFFMGYYRYSKETNINSSENSTSTLSTCLINQILSLNRASPEIVGKGCLKESGSYMWIYVFMGNMLRGIGETPIVPLGLSYIDDFAKEGHSSLYLGILNAIAMIGPIIGFTLGSLFSKMYVDIGYVDLSTIRITPTDSRWVGAWWLNFLVSGLFSIISSIPFFFLPQTPNKPQKERKASLSLHVLETNDEKDQTANLTNQGKNITKNVTGFFQSFKSILTNPLYVMFVLLTLLQVSSYIGAFTYVFKYVEQQYGQPSSKANILLGVITIPIFASGMFLGGYIIKKFKLNTVGIAKFSCFTAVMSLSFYLLYFFILCENKSVAGLTMTYDGNNPVTSHRDVPLSYCNSDCNCDESQWEPVCGNNGITYISPCLAGCKSSSGNKKPIVFYNCSCLEVTGLQNRNYSAHLGECPRDDACTRKFYFFVAIQVLNLFFSALGGTSHVMLIVKIVQPELKSLALGFHSMVIRALGGILAPIYFGALIDTTCIKWSTNNCGTRGSCRTYNSTSFSRVYLGLSSMLRVSSLVLYIILIYAMKKKYQEKDINASENGSVMDEANLESLNKNKHFVPSAGADSETHC	–	–	no change	no change
OATP1B1: N134Q (protein) parent chain: MDQNQHLNKTAEAQPSENKKTRYCNGLKMFLAALSLSFIAKTLGAIIMKSSIIHIERRFEISSSLVGFIDGSFEIGNLLVIVFVSYFGSKLHRPKLIGIGCFIMGIGGVLTALPHFFMGYYRYSKETNINSSENSTSTLSTCLINQILSLNRASPEIVGKGCLKESGSYMWIYVFMGNMLRGIGETPIVPLGLSYIDDFAKEGHSSLYLGILNAIAMIGPIIGFTLGSLFSKMYVDIGYVDLSTIRITPTDSRWVGAWWLNFLVSGLFSIISSIPFFFLPQTPNKPQKERKASLSLHVLETNDEKDQTANLTNQGKNITKNVTGFFQSFKSILTNPLYVMFVLLTLLQVSSYIGAFTYVFKYVEQQYGQPSSKANILLGVITIPIFASGMFLGGYIIKKFKLNTVGIAKFSCFTAVMSLSFYLLYFFILCENKSVAGLTMTYDGNNPVTSHRDVPLSYCNSDCNCDESQWEPVCGNNGITYISPCLAGCKSSSGNKKPIVFYNCSCLEVTGLQNRNYSAHLGECPRDDACTRKFYFFVAIQVLNLFFSALGGTSHVMLIVKIVQPELKSLALGFHSMVIRALGGILAPIYFGALIDTTCIKWSTNNCGTRGSCRTYNSTSFSRVYLGLSSMLRVSSLVLYIILIYAMKKKYQEKDINASENGSVMDEANLESLNKNKHFVPSAGADSETHC	–	–	no change	no change
OATP1B1: N134/432Q (protein) parent chain: MDQNQHLNKTAEAQPSENKKTRYCNGLKMFLAALSLSFIAKTLGAIIMKSSIIHIERRFEISSSLVGFIDGSFEIGNLLVIVFVSYFGSKLHRPKLIGIGCFIMGIGGVLTALPHFFMGYYRYSKETNINSSENSTSTLSTCLINQILSLNRASPEIVGKGCLKESGSYMWIYVFMGNMLRGIGETPIVPLGLSYIDDFAKEGHSSLYLGILNAIAMIGPIIGFTLGSLFSKMYVDIGYVDLSTIRITPTDSRWVGAWWLNFLVSGLFSIISSIPFFFLPQTPNKPQKERKASLSLHVLETNDEKDQTANLTNQGKNITKNVTGFFQSFKSILTNPLYVMFVLLTLLQVSSYIGAFTYVFKYVEQQYGQPSSKANILLGVITIPIFASGMFLGGYIIKKFKLNTVGIAKFSCFTAVMSLSFYLLYFFILCENKSVAGLTMTYDGNNPVTSHRDVPLSYCNSDCNCDESQWEPVCGNNGITYISPCLAGCKSSSGNKKPIVFYNCSCLEVTGLQNRNYSAHLGECPRDDACTRKFYFFVAIQVLNLFFSALGGTSHVMLIVKIVQPELKSLALGFHSMVIRALGGILAPIYFGALIDTTCIKWSTNNCGTRGSCRTYNSTSFSRVYLGLSSMLRVSSLVLYIILIYAMKKKYQEKDINASENGSVMDEANLESLNKNKHFVPSAGADSETHC	–	–	no change	no change
OATP1B1: N134/516Q (protein) parent chain: MDQNQHLNKTAEAQPSENKKTRYCNGLKMFLAALSLSFIAKTLGAIIMKSSIIHIERRFEISSSLVGFIDGSFEIGNLLVIVFVSYFGSKLHRPKLIGIGCFIMGIGGVLTALPHFFMGYYRYSKETNINSSENSTSTLSTCLINQILSLNRASPEIVGKGCLKESGSYMWIYVFMGNMLRGIGETPIVPLGLSYIDDFAKEGHSSLYLGILNAIAMIGPIIGFTLGSLFSKMYVDIGYVDLSTIRITPTDSRWVGAWWLNFLVSGLFSIISSIPFFFLPQTPNKPQKERKASLSLHVLETNDEKDQTANLTNQGKNITKNVTGFFQSFKSILTNPLYVMFVLLTLLQVSSYIGAFTYVFKYVEQQYGQPSSKANILLGVITIPIFASGMFLGGYIIKKFKLNTVGIAKFSCFTAVMSLSFYLLYFFILCENKSVAGLTMTYDGNNPVTSHRDVPLSYCNSDCNCDESQWEPVCGNNGITYISPCLAGCKSSSGNKKPIVFYNCSCLEVTGLQNRNYSAHLGECPRDDACTRKFYFFVAIQVLNLFFSALGGTSHVMLIVKIVQPELKSLALGFHSMVIRALGGILAPIYFGALIDTTCIKWSTNNCGTRGSCRTYNSTSFSRVYLGLSSMLRVSSLVLYIILIYAMKKKYQEKDINASENGSVMDEANLESLNKNKHFVPSAGADSETHC	–	–	no change	no change
OATP1B1: N503Q (protein) parent chain: MDQNQHLNKTAEAQPSENKKTRYCNGLKMFLAALSLSFIAKTLGAIIMKSSIIHIERRFEISSSLVGFIDGSFEIGNLLVIVFVSYFGSKLHRPKLIGIGCFIMGIGGVLTALPHFFMGYYRYSKETNINSSENSTSTLSTCLINQILSLNRASPEIVGKGCLKESGSYMWIYVFMGNMLRGIGETPIVPLGLSYIDDFAKEGHSSLYLGILNAIAMIGPIIGFTLGSLFSKMYVDIGYVDLSTIRITPTDSRWVGAWWLNFLVSGLFSIISSIPFFFLPQTPNKPQKERKASLSLHVLETNDEKDQTANLTNQGKNITKNVTGFFQSFKSILTNPLYVMFVLLTLLQVSSYIGAFTYVFKYVEQQYGQPSSKANILLGVITIPIFASGMFLGGYIIKKFKLNTVGIAKFSCFTAVMSLSFYLLYFFILCENKSVAGLTMTYDGNNPVTSHRDVPLSYCNSDCNCDESQWEPVCGNNGITYISPCLAGCKSSSGNKKPIVFYNCSCLEVTGLQNRNYSAHLGECPRDDACTRKFYFFVAIQVLNLFFSALGGTSHVMLIVKIVQPELKSLALGFHSMVIRALGGILAPIYFGALIDTTCIKWSTNNCGTRGSCRTYNSTSFSRVYLGLSSMLRVSSLVLYIILIYAMKKKYQEKDINASENGSVMDEANLESLNKNKHFVPSAGADSETHC	–	–	no change	no change
